Measured values from PMC10504565.

Biological target: endogenous POLR2A/RPB1, the largest subunit of RNA pol II, of HepG2 cells (human (endogenous in HepG2)) (UniProt P24928)
Assay: proximity ligation; fixed HepG2 cells (SHP-1 WT; SHP-1 KO as negative control), anti-SHP-1 and anti-RPB1 antibodies, Duolink In Situ kit; nuclear dots counted in at least 400 nuclei

endogenous SHP-1 of HepG2 cells, P29350 1-595 (natural protein; other documents disagree on this pair), sequence (P29350 whole entry): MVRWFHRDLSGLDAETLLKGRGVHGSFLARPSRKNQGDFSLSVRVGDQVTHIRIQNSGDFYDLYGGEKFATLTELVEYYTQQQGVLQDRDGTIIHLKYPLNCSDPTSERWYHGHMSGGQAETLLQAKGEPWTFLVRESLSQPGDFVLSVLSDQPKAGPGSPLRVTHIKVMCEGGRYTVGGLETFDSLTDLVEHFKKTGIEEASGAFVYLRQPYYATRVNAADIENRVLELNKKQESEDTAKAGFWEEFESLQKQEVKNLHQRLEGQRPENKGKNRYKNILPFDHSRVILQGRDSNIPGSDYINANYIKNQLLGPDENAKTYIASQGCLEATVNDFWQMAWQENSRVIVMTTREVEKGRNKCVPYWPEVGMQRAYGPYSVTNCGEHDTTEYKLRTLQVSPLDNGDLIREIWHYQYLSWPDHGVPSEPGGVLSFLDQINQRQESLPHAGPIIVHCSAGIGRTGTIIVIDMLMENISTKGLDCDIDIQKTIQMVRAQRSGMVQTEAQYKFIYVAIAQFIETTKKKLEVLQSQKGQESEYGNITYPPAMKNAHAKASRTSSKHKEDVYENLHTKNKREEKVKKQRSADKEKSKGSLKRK

percent of nuclei with PLA dots: 44 % of nuclei
Substance: endogenous SHP-1 of HepG2 cells, P29350 1-595 (natural protein; other documents disagree on this pair)
